Assay results: patent US20080070298, “Promoter of Synoviolin Gene” (published 2008)

Legend:
Conditions in all cases: label: 32P
Ets1 = target: T1, Ets1 (UniProt P27577 P27577:1-440); assay: EMSA; in vitro translated; supershift
T1 sequence: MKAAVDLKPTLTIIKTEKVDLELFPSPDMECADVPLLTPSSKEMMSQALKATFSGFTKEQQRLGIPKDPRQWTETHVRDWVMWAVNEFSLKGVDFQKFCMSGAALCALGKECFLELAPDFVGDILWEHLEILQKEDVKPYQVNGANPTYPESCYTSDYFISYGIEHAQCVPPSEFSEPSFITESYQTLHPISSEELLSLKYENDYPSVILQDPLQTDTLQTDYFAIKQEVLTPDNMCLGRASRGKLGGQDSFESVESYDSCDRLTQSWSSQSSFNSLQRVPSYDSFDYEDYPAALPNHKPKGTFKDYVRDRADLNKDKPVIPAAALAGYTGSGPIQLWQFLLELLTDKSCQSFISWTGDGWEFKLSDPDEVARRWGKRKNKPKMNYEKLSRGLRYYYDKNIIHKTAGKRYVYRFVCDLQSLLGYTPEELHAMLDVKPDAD
Method: (§1) Next, T4 […] kinase, buffer andy γ³²P were mixed and the mixture was reacted for 30 minutes at room temperature. The reaction solution was passed through a Micro Spin G-25 column (Amersham Pharmacia Biotech), and the collected column fraction was centrifuged to obtain labeled probes. Those having radioactivity of 30000 cpm or more per 1 µl were used.
(§2) 10 μg of protein was mixed with reaction buffer and probe, and reacted for 30 minutes at room temperature. For purposes of supershift, they were reacted for 1 hour at 4° C. before being reacted with the probe. The reaction solution was electrophoresed for about 3 hours at 100v, 50 mA in non-denatured gel. The gel was dried, and analyzed by autoradiography using a Fujii BAS2000.

Fli-1 = target: T2, Fli-1 (UniProt P26323 P26323:1-452); assay: EMSA; in vitro translated; supershift
T2 sequence: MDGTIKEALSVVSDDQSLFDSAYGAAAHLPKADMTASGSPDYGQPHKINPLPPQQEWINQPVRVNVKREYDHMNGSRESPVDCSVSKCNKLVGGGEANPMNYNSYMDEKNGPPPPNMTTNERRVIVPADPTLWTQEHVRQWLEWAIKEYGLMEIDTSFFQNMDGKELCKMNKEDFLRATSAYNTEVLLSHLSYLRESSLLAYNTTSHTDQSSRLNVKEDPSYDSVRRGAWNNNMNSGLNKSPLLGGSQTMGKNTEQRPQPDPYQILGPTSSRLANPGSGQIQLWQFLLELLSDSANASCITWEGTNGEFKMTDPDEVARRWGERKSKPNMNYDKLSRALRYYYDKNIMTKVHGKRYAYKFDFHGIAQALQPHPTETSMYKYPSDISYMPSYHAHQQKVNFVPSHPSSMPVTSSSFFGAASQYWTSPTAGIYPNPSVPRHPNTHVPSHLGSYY
Method: as §1, §2

GABPα = target: T3, GABPα (UniProt Q00422 Q00422:1-454); assay: EMSA; in vitro translated; supershift
T3 sequence: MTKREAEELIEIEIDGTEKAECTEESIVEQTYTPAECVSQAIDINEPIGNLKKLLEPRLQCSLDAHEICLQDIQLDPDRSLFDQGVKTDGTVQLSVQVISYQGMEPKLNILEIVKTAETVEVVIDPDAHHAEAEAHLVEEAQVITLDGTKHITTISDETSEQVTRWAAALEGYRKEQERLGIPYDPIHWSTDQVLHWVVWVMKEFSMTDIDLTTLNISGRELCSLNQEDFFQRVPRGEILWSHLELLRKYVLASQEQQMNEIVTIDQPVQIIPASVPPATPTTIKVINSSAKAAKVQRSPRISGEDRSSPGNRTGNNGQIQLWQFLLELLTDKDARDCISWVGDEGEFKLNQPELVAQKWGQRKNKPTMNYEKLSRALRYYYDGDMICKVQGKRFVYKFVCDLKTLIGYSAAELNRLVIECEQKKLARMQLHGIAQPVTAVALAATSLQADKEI
Method: as §1, §2

GABPα/GABPβ complex = GABPα/GABPβ complex (UniProt Q00422;Q00420 Q00422:1-454,Q00420:2-383); assay: EMSA; new complex bands on adding GABPβ to GABPα; GABPβ antibody interferes with complex a
GABPα/GABPβ complex, sequence (Q00420 2-383, one chain of several): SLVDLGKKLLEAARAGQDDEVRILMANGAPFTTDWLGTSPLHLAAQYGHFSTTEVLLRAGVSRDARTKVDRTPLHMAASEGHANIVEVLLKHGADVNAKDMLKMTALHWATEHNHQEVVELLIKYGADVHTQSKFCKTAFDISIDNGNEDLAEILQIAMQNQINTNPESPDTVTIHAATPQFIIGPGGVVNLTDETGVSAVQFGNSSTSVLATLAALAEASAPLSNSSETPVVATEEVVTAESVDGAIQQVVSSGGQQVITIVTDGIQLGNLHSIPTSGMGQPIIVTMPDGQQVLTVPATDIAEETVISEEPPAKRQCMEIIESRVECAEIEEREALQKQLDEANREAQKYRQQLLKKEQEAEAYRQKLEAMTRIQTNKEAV
Method: as §1, §2

Measured: binding result

B1: EBS WT (-85 to -70) (dsDNA)
DNA 1: GCGCCGCCGGAAGTGA
DNA 2: TCACTTCCGGCGGCGC
binds: Ets1 | Fli-1 | GABPα | GABPα/GABPβ complex
